Where “and” joins values, the source holds several entries; their conditions need not be identical. Equal values may be shown once.
Biological target: the molecule itself
Assay: cryo-EM structure; α-LTX at 0.5 mg/ml in 25 mM Tris-HCl pH 8.0, 150 mM NaCl, 0.1 mM CaCl2, 0.2 mM MgCl2; 2D classification and 3D reconstruction of two tetrameric states (prepore, pore)

B1: α-latrotoxin (natural protein)
chain: EGEDLTLEEKAEICSELELQQKYVDIASNIIGDLSSLPIAGKIAGTIAAAAMTATHVASGRLDIEQTLLGCSDLPFDQIKEVLENRFNEIDRKLDSHSAALEEITKLVEKSISVVEKTRKQMNKRFDEVMKSIQDAKVSPIISKINNFARYFDTEKERIRGLKLNDYILKLEEPNGILLHFKESRTPTDDSLQAPLFSIIEEGYAVPKSIDDELAFKVLYALLYGTQTYVSVMFFLLEQYSFLANHYYEKGYLEKYDEYFNSLNNVFLDFKSSLVGTGTSNNEGLLDRVLQVLMTVKNSEFLGLEKNGVDEMLNEKINLFNKIKEEIEGKQKMTLSETPENFAQISFDKDITTPIGDWRDGREVRYAVQYASETLFSKISHWSDPVSVREKACPTLRMPVDQTRRNVLVFRKFDSSKPQLVGEITPYLSNFIDIDRDLYNAASNPDSAVGFKEFTKLNYDGANIRATFDHGRTVFHAAAKSGNDKIMFGLTFLAKSTELNQPDKKGYTPIHVAADSGNAGIVNLLIQRGVSINSKTYHFLQTPLHLAAQRGFVTTFQRLMESPEININERDKDGFTPLHYAIRGGERILEAFLNQISIDVNAKSNTGLTPFHLAIIKNDWPVASTLLGSKKVDINAVDENNITALHYAAILGYLETTKQLINLKEINANVVSSPGLLSALHYAILYKHDDVASFLMRSSNVNVNLKALGGITPLHLAVIQGRKQILSLMFDIGVNIEQKTDEKYTPLHLAAMSKYPELIQILLDQGSNFEAKTNSGATPLHLATFKGKSQAALILLNNEVNWRDTDENGQMPIHGAAMTGLLDVAQAIISIDATVVDIEDKNSDTPLNLAAQNSHIDVIKYFIDQGADINTRNKKGLAPLLAFSKKGNLDMVKYLFDKNANVYIADNDGMNFFYYAVQNGHLNIVKYAMSEKDKFEWSNTDNNRRDECPNEECAISHFAVCDAVQFDRIEIVKYFVGTLGNFAICGPLHQAARYGHLDIVKYLVEEEFLSVDGSKTDTPLCYASENGHFTVVQYLVSNGAKVNHDCGNGMTAIDKAITKNHLQVVQFLAANGVDFRRKNSRGTTPFLTAVAENALHIAEYLIREKRQDININEQNVDKDTALHLAVYYKNLQMIKLLIKYGIDVTIRNAYDKTALDIAIDAKFSNIVEYLKTKSGKFRR
notes: Tetramer in the presence of Ca2+/Mg2+; monomers, dimers and trimers stand in the same sample; Disulfide bonds seen: C34-C91 (CC1), C968-C973 (CC2), and CC3 and CC4 in AR15-19; the model ends at G1195; also called α-LTX
In the case of B1, the “stoichiometry N” value is reported as 4 and 3 and 2.

From article PMC11449929, “Structural basis of α-latrotoxin transition to a cation-selective pore” (Nature Communications, 2024)
